Assay [1] addresses T1, FIXa-SM (FIXa+EGR-CMK) (human, UniProt P00740 47-191; P00740 227-461, EGR-CMK (L-Glu-Gly-Arg chloromethyl ketone) covalently bound to the active site).
T1 construct: BLI antigen bought from Haematologic Technologies (HCIXA-EGR); also called FIXa with substrate mimic
The experiment in a line: BLI; class meaning: paragraph 914.

For assay [2], the target named is T2, free FIXa (activated Factor IX) (human, UniProt P00740 47-191; P00740 227-461).
T2 construct: BLI antigen bought from Haematologic Technologies (HCIXA-0050); also called factor IXa
Nature of the assay: BLI; class meaning: paragraph 914.

B1: BIIB-9-628 (antibody, V domains shown)
VH: QVQLVQSGAEVKKPGASVKVSCKASGYTFTSYYMHWVRQAPGQGLEWMGIINPSGGSTSYAQKFQGRVTMTRDTSTSTVYMELSSLRSEDTAVYYCAREPIAYGATLDLWGRGTLVTVSS
VL: EIVLTQSPGTLSLSPGERATLSCRASQSVSSDYLAWYQQKPGQAPRLLIYGASSRATGIPDRFSGSGSGTDFTLTISRLEPEDFAVYYCQQYVVFPFTFGGGTKVEIK
notes: IgG
Take B1: the binding result in assay [1] and in assay [2] was “binds” each time.

B2: BIIB-9-884 (antibody, V domains shown)
VH: QLQLQESGPGLVKPSETLSLTCTVSGGSISSSDYYWGWIRQPPGKGLEWIGSIYYSGSTYYNPSLKSRVTISVDTSKNQFSLKLSSVTAADTAVYYCARSPRHKVRGPNWFDPWGQGTLVTVSS
VL: EIVLTQSPGTLSLSPGERATLSCRASQSVSSSYLAWYQQKPGQAPRLLIYGASSRATGIPDRFSGSGSGTDFTLTISRLEPEDFAVYYCQQYHLLPPTFGGGTKVEIK
notes: IgG
With B2, the binding result in assay [1] and in assay [2] was “binds” each time.

B3: BIIB-9-886 (antibody, V domains shown)
VH: QVQLVQSGAEVKKPGASVKVSCKASGYTFTSYYMHWVRQAPGQGLEWMGIINPSGGSTSYAQKFQGRVTMTRDTSTSTVYMELSSLRSEDTAVYYCARDPAHSYLDAFDIWGQGTMVTVSS
VL: DIQMTQSPSSVSASVGDRVTITCRASQGISSWLAWYQQKPGKAPKLLIYAASSLQSGVPSRFSGSGSGTDFTLTISSLQPEDFATYYCQQASSFPFTFGGGTKVEIK
notes: IgG
Consider B3, for which the binding result in assay [1] and in assay [2] was “binds” throughout.

B4: BIIB-9-887 (antibody, V domains shown)
VH: QVQLVQSGAEVKKPGASVKVSCKASGYTFTSYYMVWVRQAPGQGLEWMGIINPSGGSTSYAQKFQGRVTMTRDTSTSTVYMELSSLRSEDTAVYYCARDAEAHWIPGMDVWGQGTTVTVSS
VL: DIQMTQSPSSVSASVGDRVTITCRASQGISSWLAWYQQKPGKAPKLLIYAASSLQSGVPSRFSGSGSGTDFTLTISSLQPEDFATYYCQQASSFPFTFGGGTKVEIK
notes: IgG
For B4, the binding result in assay [1] and in assay [2] was “binds” each time.

B5: BIIB-9-882 (antibody, V domains shown)
VH: QVQLVQSGAEVKKPGASVKVSCKASGYTFTSYYMHWVRQAPGQGLEWMGIINPSGGSTSYAQKFQGRVTMTRDTSTSTVYMELSSLRSEDTAVYYCARGPTDSSGYLDMDVWGKGTTVTVSS
VL: EIVMTQSPATLSVSPGERATLSCRASQSVSSNLAWYQQKPGQAPRLLIFGASTRATGIPARFSGSGSGTEFTLTISSLQSEDFAVYYCQQHDNFPPTFGGGTKVEIK
notes: IgG
On to B5, for which the binding result in assay [1] and in assay [2] was “binds” each time.

B6: BIIB-9-888 (antibody, V domains shown)
VH: QVQLVQSGAEVKKPGASVKVSCKASGYTFTSYYMHWVRQAPGQGLEWMGIINPSGGSTSYAQKFQGRVTMTRDTSTSTVYMELSSLRSEDTAVYYCARGPTDSSGYLDMDVWGKGTTVTVSS
VL: EIVMTQSPATLSVSPGERATLSCRASQSVSSNLAWYQQKPGQAPRLLIYGASTRATGIPARFSGSGSGTEFTLTISSLQPEDFAVYYCQQAFNWPPTFGGGTKVEIK
notes: IgG
Regarding B6, the binding result in assay [1] and in assay [2] was “binds” throughout.

B7: BIIB-9-445 (antibody, V domains shown)
VH: QVQLVQSGAEVKKPGASVKVSCKASGYTFTSYYIHWVRQAPGQGLEWMGIINPSGGSTSYAQKFQGRVTMTRDTSTSTVYMELSSLRSEDTAVYYCARDVGQDYWFDLWGRGTLVTVSS
VL: EIVMTQSPATLSVSPGERATLSCRASQSVSSNLAWYQQKPGQAPRLLIYSASTRATGIPARFSGSGSGTEFTLTISSLQSEDFAVYYCQQYDNFPFTFGGGTKVEIK
notes: IgG
B7: the binding result in assay [1] and in assay [2] was “binds” in each case.

B8: BIIB-9-472 (antibody, V domains shown)
VH: EVQLVESGGGLVKPGGSLRLSCAASGFTFSSYSMNWVRQAPGKGLEWVSSISSSSSYIYYADSVKGRFTISRDNAKNSLYLQMNSLRAEDTAVYYCARGGRYSGSWSWNIWGQGTMVTVSS
VL: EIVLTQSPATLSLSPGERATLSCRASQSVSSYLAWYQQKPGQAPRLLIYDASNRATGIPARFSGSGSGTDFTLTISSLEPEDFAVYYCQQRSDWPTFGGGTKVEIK
notes: IgG
As for B8, the binding result in assay [1] and in assay [2] was “binds” throughout.

B9: BIIB-9-568 (antibody, V domains shown)
VH: QLQLQESGPGLVKPSETLSLTCTVSGGSISSSSYYWGWIRQPPGKGLEWIGSIYYSGSTYYNPSLKSRVTISVDTSKNQFSLKLSSVTAADTAVYYCARDLGYAATYFDLWGRGTLVTVSS
VL: DIQMTQSPSSLSASVGDRVTITCQASQDISNYLNWYQQKPGKAPKLLIYDASNLETGVPSRFSGSGSGTDFTFTISSLQPEDIATYYCQQYDDYLTFGGGTKVEIK
notes: IgG
In the case of B9, the binding result in assay [1] and in assay [2] was “binds” in each case.

B10: BIIB-9-889 (antibody, V domains shown)
VH: QLQLQESGPGLVKPSETLSLTCTVSGGSISSSSYYWGWIRQPPGKGLEWIGSIYYSGSTYYNPSLKSRVTISVDTSKNQFSLKLSSVTAADTAVYYCARDVGWYTEYFDLWGRGTLVTVSS
VL: EIVMTQSPATLSVSPGERATLSCRASQSVSSNLAWYQQKPGQAPRLLIYGASTRATGIPARFSGSGSGTEFTLTISSLQSEDFAVYYCQQAFNWPPTFGGGTKVEIK
notes: IgG
For the molecule B10, the binding result in assay [1] and in assay [2] was “binds” throughout.

B11: BIIB-9-1280 (antibody, V domains shown)
VH: QVQLVQSGAEVKKPGASVKVSCKASGYTFTSYYMVWVRQAPGQGLEWMGIINPSGGSTSYAQKFQGRVTMTRDTSTSTVYMELSSLRSEDTAVYYCARGPWYSYYYMDVWGKGTTVTVSS
VL: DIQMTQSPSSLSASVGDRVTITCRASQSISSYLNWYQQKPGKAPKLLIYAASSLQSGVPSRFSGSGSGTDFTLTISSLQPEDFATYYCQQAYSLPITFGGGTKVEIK
notes: IgG
As to B11, the binding result in assay [1] and in assay [2] was “binds” in each case.

B12: BIIB-9-1266 (antibody, V domains shown)
VH: QVQLVQSGAEVKKPGASVKVSCKASGYTFTSYYMHWVRQAPGQGLEWMGIINPSGGSTSYAQKFQGRVTMTRDTSTSTVYMELSSLRSEDTAVYYCARDHGWAIYGMDVWGQGTTVTVSS
VL: EIVMTQSPATLSLSPGERATLSCRASQSVSSYLAWYQQKPGQAPRLLIYDSSNRATGIPARFSGSGSGTDFTLTISSLEPEDFAVYYCQQRLNFPFTFGGGTKVEIK
notes: IgG
Take B12: the binding result in assay [1] and in assay [2] was “binds” in each case.

B13: BIIB-9-439 (antibody, V domains shown)
VH: QVQLVQSGAEVKKPGASVKVSCKASGYTFTSYYMHWVRQAPGQGLEWMGIINPSGGSTTYAQKFQGRVTMTRDTSTSTVYMELSSLRSEDTAVYYCAREATESYYYMDVWGKGTTVTVSS
VL: EIVMTQSPATLSLSPGERATLSCRASQSVSSYLAWYQQKPGQAPRLLIYDSSNRATGIPARFSGSGSGTDFTLTISSLEPEDFAVYYCQQRDNWPFTFGGGTKVEIK
notes: IgG
For B13, the binding result in assay [1] and in assay [2] was “binds” throughout.

B14: BIIB-9-446 (antibody, V domains shown)
VH: QVQLVQSGAEVKKPGSSVKVSCKASGGTFSSYAISWVRQAPGQGLEWMGGIIPIFGTASYAQKFQGRVTITADESTSTAYMELSSLRSEDTAVYYCARGLEVGYYGYFDYWGQGTLVTVSS
VL: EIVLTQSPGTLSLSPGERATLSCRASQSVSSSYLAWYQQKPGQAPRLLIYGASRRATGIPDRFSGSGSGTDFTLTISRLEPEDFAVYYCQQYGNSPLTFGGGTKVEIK
notes: IgG
For B14, the binding result in assay [1] and in assay [2] was “binds” throughout.

B15: BIIB-9-607 (antibody, V domains shown)
VH: QLQLQESGPGLVKPSETLSLTCTVSGGSISSSSYYWGWIRQPPGKGLEWIGSISYSGSTYYNPSLKSRVTISVDTSKNQFSLKLSSVTAADTAVYYCARDRGYSYEDFDLWGRGTLVTVS
VL: DIQMTQSPSTLSASVGDRVTITCRASQSISSWLAWYQQKPGKAPKLLIYKASSLESGVPSRFSGSGSGTEFTLTISSLQPDDFATYYCQQAGRYPLTFGGGTKVEIK
notes: IgG
With B15, the binding result in assay [1] and in assay [2] was “binds” throughout.

B16: BIIB-9-885 (antibody, V domains shown)
VH: QVQLVQSGAEVKKPGASVKVSCKASGYTFTSYYMHWVRQAPGQGLEWMGIINPSGGSTSYAQKFQGRVTMTRDTSTSTVYMELSSLRSEDTAVYYCAREGPMLDYPTYSNWFDPWGQGTLVTVSS
VL: EIVLTQSPATLSLSPGERATLSCRASQSVSSYLAWYQQKPGQAPRLLIYDASKRATGIPARFSGSGSGTDFTLTISSLEPEDFAVYYCQQRVIWPPTFGGGTKVEIK
notes: IgG
Consider B16, for which the binding result in assay [2] is given as “binds”.

B17: BIIB-9-471 (antibody, V domains shown)
VH: QVQLQESGPGLVKPSQTLSLTCTVSGGSISSGGYYWSWIRQHPGKGLEWIGYIYYSGSTYYNPSLKSRVTISVDTSKNQFSLKLSSVTAADTAVYYCARSGVSGSGSDNWFDPWGQGTTVTVSS
VL: EIVLTQSPATLSLSPGERATLSCRASQSVSRYLAWYQQKPGQAPRLLIYDASNRATGIPARFSGSGSGTDFTLTISSLEPEDFAVYYCQQDYNYPFTFGGGTKVEIK
notes: IgG
Take B17: the binding result in assay [1] and in assay [2] was “binds” each time.

B18: BIIB-9-433 (antibody, V domains shown)
VH: QLQLQESGPGLVKPSETLSLTCTVSGGSISSSRYYWGWIRQPPGKGLEWIGSIYYSGSTYYNPSLKSRVTISVDTSKNQFSLKLSSVTAADTAVYYCARDAGYSAELFDYWGQGTLVTVSS
VL: EIVLTQSPATLSLSPGERATLSCRASQSVSSYLAWYQQKPGQAPRLLIYDASNRATGIPARFSGSGSGTDFTLTISSLEPEDFAVYYCQQSSAYPPTFGGGTKVEIK
notes: IgG
With B18, the binding result in assay [1] and in assay [2] was “binds” throughout.

B19: BIIB-9-615 (antibody, V domains shown)
VH: QVQLVQSGAEVKKPGASVKVSCKASGYTFTSYYMHWVRQAPGQGLEWMGIINPSGGSTSYAQKFQGRVTMTRDTSTSTVYMELSSLRSEDTAVYYCARDSPSSSSYWSLDLWGRGTLVTVSS
VL: EIVLTQSPATLSLSPGERATLSCRASQSVSSYLAWYQQKPGQAPRLLIYDASNRATGIPARFSGSGSGTDFTLTISSLEPEDFAVYYCQQSCHWPWTFGGGTKVEIK
notes: IgG
B19: the binding result in assay [1] and in assay [2] was “binds” each time.

(Values after patent US20230192896A1 (BIOVERATIV THERAPEUTICS, published 2023).)
